The values below come from article PMC10504260, “Identification of a c-type heme oxygenase and its function during acclimation of cyanobacteria to nitrogen fluctuations” (Communications Biology, 2023).

Test [1] addresses Ssr1698 (c-type heme oxygenase, cHO), purified tag-less apo-Ssr1698 (Synechocystis sp. strain PCC 6803). The experiment in a line: SEC; Superdex 200 Increase 10/300GL equilibrated with PBS buffer (pH 7.4); tag-less Ssr1698 after removal of GST by Factor Xa. For orientation: SEC sorts molecules by how far they enter the pores of the column.
For test [2] the target is unchanged. Kind of test: native gel or EMSA; clear native-PAGE (CN-PAGE) of purified tag-less Ssr1698; 5-12.5% acrylamide gradient gel, 0.01% DM and 0.025% deoxycholate in the cathode buffer, 4 °C. (In general: A gel shift assay detects complexes by their altered migration in electrophoresis.)
Test [3] has as its target T1, Ssr1698 (cHO) (Synechocystis sp. PCC 6803, UniProt P73129).
T1 construct: full-length 96-residue protein; GST fusion from pGEX-5X-1 (BamHI/XhoI) in E. coli BL21(DE3) pLysS, GST tag removed by Factor Xa, SEC; dimer
T1 sequence (P73129 1-96): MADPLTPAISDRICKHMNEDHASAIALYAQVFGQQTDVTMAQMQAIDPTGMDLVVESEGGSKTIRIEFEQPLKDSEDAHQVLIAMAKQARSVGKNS
Kind of test: UV-visible assay of MP-11 (c-type heme) degradation with added biliverdin IXα. The class given is biochemical. As to conditions: product inhibition; substrate MP-11, ascorbate, catalase, PBS pH 7.4.

The target of test [4] is T1, Ssr1698 (cHO). Kind of test: HPLC and LC-MS of reaction product. The class given is biochemical. To be noted: substrate MP-11 (c-type heme), 10 mM ascorbic acid, 2 µM catalase, PBS pH 7.4, 2 h.

By stoichiometry N is commonly meant a count of units in the complex or per binding partner.

For the compound “Ssr1698 (c-type heme oxygenase, cHO), purified tag-less apo-Ssr1698 (enzyme)”, the stoichiometry N in test [1] and in test [2] was 2 in each case.
With `C=CC1=C(C)C(=Cc2[nH]c(C=C3N=C(C=C4NC(=O)C(C)=C4C=C)C(C)=C3CCC(=O)O)c(CCC(=O)O)c2C)NC1=O` [biliverdin IXα], the “suppression of c-type heme degradation” value at Ssr1698 (cHO) [3] is “degradation of c-type heme is significantly suppressed after the addition of biliverdin IXα”. Moreover, the “HPLC and LC-MS of reaction product” value on Ssr1698 (cHO) [4] was “biliverdin IXα molecule, 11-amino acid peptide and free iron were identified in the reaction product”.
